Values quoted from earlier work, collected in US8623606B2, “Screening method for GPCR ligands” (Max-Planck-Gesellschaft zur Forderung der wissenschaften …, priority 2006, dated 2014).
pKd: −log10 of the molar value. Read-outs that look alike come from different tables or passages of the source.

Assays:
CRF1 receptor [1] = target: T1, CRF1 receptor (Homo sapiens, UniProt P34998)
T1 sequence (P34998 24-415): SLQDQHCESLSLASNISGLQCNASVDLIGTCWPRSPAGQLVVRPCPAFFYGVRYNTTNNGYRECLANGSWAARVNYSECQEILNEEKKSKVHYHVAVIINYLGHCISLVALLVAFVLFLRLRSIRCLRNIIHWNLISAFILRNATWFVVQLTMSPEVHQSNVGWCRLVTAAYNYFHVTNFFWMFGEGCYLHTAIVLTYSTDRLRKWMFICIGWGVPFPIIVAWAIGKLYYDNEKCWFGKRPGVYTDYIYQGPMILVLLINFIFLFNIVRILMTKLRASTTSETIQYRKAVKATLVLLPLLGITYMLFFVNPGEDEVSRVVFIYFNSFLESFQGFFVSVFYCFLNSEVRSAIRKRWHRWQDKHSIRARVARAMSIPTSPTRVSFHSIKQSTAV

CRF1 receptor [2] = target: T1, CRF1 receptor; remark: listed apart in the source
CRF R1 = conditions: FIG. 2A legend

| Substance | binding to the CRF1 receptor (in words) (CRF1 receptor [1]; FIG. 2B legend) | pKd (CRF1 receptor [1]; as reported in Yamada et al., read-out: binding constant to the N-terminal domain) | pKd (CRF1 receptor [1]; literature value, read-out: affinity of binding to the CRF1 receptor) | influence on the J-domain signaling (CRF1 receptor [2]) | CRF R1 activation potency (testosterone production) (CRF R1) |
| --- | --- | --- | --- | --- | --- |
| Ac-E*AEK*NRLXDII-CONH2 [12 amino acid analog of astressin] | binds tightly | 8.30 | 8.26 | devoid of any detectable influence | – |
| Ucn1-19: N-terminal activation domain from the CRF R1 agonist rat urocortin (DDPPLSIDLTFHLLRTLLEIE; listed as Homo sapiens) | – | – | – | – | Neither of the isolated domains is active alone |
| consensus peptide derived from the C-terminus of CRF R1 antagonists: consensus peptide derived from the C-terminus of CRF R1 antagonists (NRKLLDEV; listed as Homo sapiens) | – | – | – | – | Neither of the isolated domains is active alone |
